In patent US20220088118A1 (Bicycle, published 2022):
Numbered stars: 1 amine (or outer) side, 2 acyl side, 3 side chain; on linkers, the order of the positions; unused ones are H or OH. Bridge positions count the residues as written; N and C are the ends. Ends that are not written are not given here. TATA = O=C(CC[*:1])N1CN(C(=O)CC[*:2])CN(C(=O)CC[*:3])C1

Target: T1, human carbonic anhydrase IX (human, UniProt Q16790 38-414)
Assay: competition fluorescence polarisation, fluorescent ligand (SEQ ID NO: 18)-Sar6-K(FI)

Binder	Ki
ACSSECIWVDGWVCA (linker 2-6-14 via TATA) [61-30-01-N001]	99.5 nM
ACTETCIWVDGWVCA (linker 2-6-14 via TATA) [61-30-02-N001]	193 nM
ACGDCIWVDGWVCA (linker 2-5-13 via TATA) [61-25-01-N001]	26.5 nM
ACTDCIWVDGWMCA (linker 2-5-13 via TATA) [61-28-00-N001]	442 nM
ACVDCVWVDGWVCA (linker 2-5-13 via TATA) [61-25-03-N001]	70.5 nM

Continued by falling Ki, values first:

Ki	Binder
2280 nM	ACGACTWADGWVCA (linker 2-5-13 via TATA) [61-25-00-N001]
1610 nM	ACGRCTWVDGWICA (linker 2-5-13 via TATA) [61-27-00-N001]
326 nM	ACLSHCLWVDGWVCA (linker 2-6-14 via TATA) [61-31-00-N001]
158 nM	ACANNCIWVDGWVCA (linker 2-6-14 via TATA) [61-30-03-N001]
129 nM	ACVECWADGWVNCA (linker 2-5-13 via TATA) [61-29-00-N001]
103 nM	ACHAHCLWVDGWVCA (linker 2-6-14 via TATA) [61-30-00-N001]
51 nM	ACGLCIWVDGWVCA (linker 2-5-13 via TATA) [61-26-00-N001]
30 nM	ACRDCIWVDGWVCA (linker 2-5-13 via TATA) [61-25-02-N001]

Target: T1, human carbonic anhydrase IX
Assay: cell-based or functional assay

Enzyme IC50	Binder
1330 nM	ACSSECIWVDGWVCA (linker 2-6-14 via TATA) [61-30-01-N001]
939 nM	ACGDCIWVDGWVCA (linker 2-5-13 via TATA) [61-25-01-N001]
